Data taken from patent US20260184748A1 (University of Pennsylvania, published 2026).
Where no end group is shown, it is not given here.

Key:
Assay in all cases: cell-based or functional assay
DRD4 = target: T1, DRD4 (UniProt P21917 1-419, limits assumed)
T1 sequence (looked up): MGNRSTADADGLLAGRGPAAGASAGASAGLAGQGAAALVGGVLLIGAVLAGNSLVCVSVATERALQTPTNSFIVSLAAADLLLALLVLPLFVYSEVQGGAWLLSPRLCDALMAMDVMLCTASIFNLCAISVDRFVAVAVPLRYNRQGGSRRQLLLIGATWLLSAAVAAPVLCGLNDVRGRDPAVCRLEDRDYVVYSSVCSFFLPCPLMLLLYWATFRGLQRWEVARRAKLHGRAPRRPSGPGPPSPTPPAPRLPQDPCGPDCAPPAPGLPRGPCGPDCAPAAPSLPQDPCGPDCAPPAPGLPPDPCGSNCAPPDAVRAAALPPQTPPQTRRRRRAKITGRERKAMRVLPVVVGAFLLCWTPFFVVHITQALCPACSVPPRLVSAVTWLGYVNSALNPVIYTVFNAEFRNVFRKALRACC

HTR1F = target: T2, HTR1F (UniProt P30939 1-366)
T2 sequence (looked up): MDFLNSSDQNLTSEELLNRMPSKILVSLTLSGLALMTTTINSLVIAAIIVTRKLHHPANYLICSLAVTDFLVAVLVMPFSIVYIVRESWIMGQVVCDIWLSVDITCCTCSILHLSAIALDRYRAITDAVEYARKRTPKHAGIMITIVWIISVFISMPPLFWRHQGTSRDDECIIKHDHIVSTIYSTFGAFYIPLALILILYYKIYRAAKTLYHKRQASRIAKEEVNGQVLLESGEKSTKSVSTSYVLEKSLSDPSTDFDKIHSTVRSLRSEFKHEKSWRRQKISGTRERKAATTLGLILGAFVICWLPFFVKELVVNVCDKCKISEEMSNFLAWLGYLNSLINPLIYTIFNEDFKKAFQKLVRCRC

HTR1B = HTR1B (UniProt P28222 1-390)
Sequence of HTR1B (P28222 whole entry): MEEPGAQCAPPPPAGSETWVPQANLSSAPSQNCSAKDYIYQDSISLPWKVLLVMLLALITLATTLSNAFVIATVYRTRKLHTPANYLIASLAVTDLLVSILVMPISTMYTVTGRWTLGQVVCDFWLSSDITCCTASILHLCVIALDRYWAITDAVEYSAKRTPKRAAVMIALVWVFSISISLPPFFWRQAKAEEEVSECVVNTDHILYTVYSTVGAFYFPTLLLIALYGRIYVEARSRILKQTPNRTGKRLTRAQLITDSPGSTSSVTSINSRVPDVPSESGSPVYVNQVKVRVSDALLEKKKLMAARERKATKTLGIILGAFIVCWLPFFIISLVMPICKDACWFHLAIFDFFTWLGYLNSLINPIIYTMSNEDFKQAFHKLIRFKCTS

ADRA2B = target: T3, ADRA2B (UniProt P18089 1-450)
T3 sequence (looked up): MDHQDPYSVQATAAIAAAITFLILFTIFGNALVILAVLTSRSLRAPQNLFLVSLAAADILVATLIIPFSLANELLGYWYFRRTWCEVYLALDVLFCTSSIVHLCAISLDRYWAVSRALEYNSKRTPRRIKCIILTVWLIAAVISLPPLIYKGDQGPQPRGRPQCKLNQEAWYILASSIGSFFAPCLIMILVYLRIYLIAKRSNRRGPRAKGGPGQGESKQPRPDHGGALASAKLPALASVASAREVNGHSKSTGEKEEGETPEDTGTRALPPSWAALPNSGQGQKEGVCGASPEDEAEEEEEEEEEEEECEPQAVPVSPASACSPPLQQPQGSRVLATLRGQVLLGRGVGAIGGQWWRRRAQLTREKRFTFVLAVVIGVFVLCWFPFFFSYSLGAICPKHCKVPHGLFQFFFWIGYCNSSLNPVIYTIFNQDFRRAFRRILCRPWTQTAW

EDG3 = EDG3 (UniProt Q99500 1-378)
Sequence of EDG3 (Q99500 whole entry): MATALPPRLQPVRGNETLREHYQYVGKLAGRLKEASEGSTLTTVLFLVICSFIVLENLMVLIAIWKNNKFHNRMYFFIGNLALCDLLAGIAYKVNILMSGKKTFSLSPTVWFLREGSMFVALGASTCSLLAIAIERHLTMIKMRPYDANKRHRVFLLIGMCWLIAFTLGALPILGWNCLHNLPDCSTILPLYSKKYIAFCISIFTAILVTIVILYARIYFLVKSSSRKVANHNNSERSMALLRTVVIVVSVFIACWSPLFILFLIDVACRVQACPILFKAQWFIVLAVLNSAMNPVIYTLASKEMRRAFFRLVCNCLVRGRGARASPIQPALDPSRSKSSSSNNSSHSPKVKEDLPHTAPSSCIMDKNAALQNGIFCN

CXCR1 = target: T4, CXCR1 (UniProt P25024 1-350)
T4 sequence (looked up): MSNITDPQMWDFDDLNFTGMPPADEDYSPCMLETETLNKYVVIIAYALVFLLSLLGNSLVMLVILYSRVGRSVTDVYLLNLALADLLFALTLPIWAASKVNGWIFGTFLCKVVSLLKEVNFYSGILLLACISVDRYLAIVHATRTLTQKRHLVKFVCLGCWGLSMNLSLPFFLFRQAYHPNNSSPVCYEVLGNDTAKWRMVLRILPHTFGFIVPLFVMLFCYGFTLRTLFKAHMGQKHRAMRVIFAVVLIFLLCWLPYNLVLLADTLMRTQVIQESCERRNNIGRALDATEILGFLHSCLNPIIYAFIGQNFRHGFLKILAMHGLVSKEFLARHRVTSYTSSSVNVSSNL

CXCR5 = target: T5, CXCR5 (UniProt P32302 1-372)
T5 sequence (looked up): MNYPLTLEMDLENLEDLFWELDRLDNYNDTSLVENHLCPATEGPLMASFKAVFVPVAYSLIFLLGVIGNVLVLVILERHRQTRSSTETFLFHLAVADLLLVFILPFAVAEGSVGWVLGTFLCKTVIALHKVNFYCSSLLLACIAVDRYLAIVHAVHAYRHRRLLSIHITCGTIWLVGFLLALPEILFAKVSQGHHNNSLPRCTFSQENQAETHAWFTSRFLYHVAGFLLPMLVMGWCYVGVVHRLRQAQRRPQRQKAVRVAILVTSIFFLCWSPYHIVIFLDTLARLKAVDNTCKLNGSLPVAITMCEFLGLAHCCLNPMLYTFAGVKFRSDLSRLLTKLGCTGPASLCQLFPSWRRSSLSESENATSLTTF

CHRM2 = target: T6, CHRM2 (UniProt P08172 1-466)
T6 sequence (looked up): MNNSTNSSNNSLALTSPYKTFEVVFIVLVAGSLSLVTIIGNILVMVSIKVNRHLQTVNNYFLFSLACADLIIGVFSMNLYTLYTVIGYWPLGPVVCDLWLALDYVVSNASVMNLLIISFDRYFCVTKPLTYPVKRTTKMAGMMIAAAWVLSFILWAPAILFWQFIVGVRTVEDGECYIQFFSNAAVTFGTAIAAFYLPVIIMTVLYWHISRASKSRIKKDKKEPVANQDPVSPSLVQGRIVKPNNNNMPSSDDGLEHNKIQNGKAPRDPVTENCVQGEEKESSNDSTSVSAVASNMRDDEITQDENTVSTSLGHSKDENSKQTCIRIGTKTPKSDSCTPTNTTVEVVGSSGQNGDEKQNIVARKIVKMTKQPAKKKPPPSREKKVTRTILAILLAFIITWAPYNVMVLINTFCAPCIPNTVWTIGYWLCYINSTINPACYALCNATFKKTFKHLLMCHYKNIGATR

B1: octadecaneuropeptide (ODN) (peptide)
peptide: QATVGDVNTDRPGLLDLK
modifications: also: synthesised on Rink amide resin, C-terminal amide not given here outright
DRD4
  % Activity, arrestin, antagonist mode, 2.5 uM: 2.5%
HTR1F
  % Activity, arrestin, antagonist mode, 2.5 uM: -23.3%
HTR1B
  % Activity, arrestin, antagonist mode, 2.5 uM: -11.9%
ADRA2B
  % Activity, arrestin, antagonist mode, 2.5 uM: -36.8%
EDG3
  % Activity, arrestin, antagonist mode, 2.5 uM: 15.4%
CXCR1
  % Activity, arrestin, antagonist mode, 2.5 uM: 10.2%
CXCR5
  % Activity, arrestin, antagonist mode, 2.5 uM: -18.9%
CHRM2
  % Activity, arrestin, antagonist mode, 2.5 uM: 3.3%
